Data from patent publication US20230220035A1 (DONG-A ST CO., LTD., published 2023).
*1 amine or outer side, *2 acyl side, *3 side chain or, on linkers, in order; H or OH if unused. Side-chain parts run from the residue outwards. [ ]: non-standard residue; d: D form. The star is where a group is joined. γGlu = O=C(O)[C@H](CCC(=O)[*:2])N[*:1]; Stearoyl = CCCCCCCCCCCCCCCCCC(=O)*; Palmitoyl = CCCCCCCCCCCCCCCC(=O)*; AEEA = NCCOCCOCC(=O)O; Aib = CC(C)(N)C(=O)O

How the values were obtained:
GLP-1 receptor = GLP-1 receptor (Homo sapiens, UniProt P43220); assay: Human GLP-1 receptor activation assay (CRE-luciferase); assay type: cell-based; design: host or cells: CHO-K1; conditions: for Emax: CHO-K1, 6 h, read-out: GLP-1 receptor Maximum activation (% vs GLP-1); for EC50: CHO-K1 cells transiently transfected, luciferase, 6 hours, 0.1% BSA
GLP-1 receptor, sequence (P43220 24-463): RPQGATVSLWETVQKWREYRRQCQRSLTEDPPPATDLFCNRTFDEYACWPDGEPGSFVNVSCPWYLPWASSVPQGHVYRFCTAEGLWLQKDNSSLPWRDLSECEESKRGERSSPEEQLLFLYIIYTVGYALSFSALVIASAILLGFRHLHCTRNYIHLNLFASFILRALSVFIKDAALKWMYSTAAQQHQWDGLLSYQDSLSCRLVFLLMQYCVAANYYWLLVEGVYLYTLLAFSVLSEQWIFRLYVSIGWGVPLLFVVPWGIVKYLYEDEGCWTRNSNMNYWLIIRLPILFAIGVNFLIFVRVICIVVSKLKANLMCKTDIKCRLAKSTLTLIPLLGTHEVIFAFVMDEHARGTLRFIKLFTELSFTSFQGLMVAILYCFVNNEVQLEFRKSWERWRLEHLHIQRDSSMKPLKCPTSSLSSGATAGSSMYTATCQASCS
Protocol: (§1) Then, the resulting increased luciferase activity was evaluated as a measurement of the effect on each receptor activation.
(§2) For positive control, endogenous ligand GLP-1 or glucagon was used for respective evaluation. The above-mentioned acylated oxyntomodulin peptide analogs of Comparative Example 8-12 were synthesized and used as comparative examples.
(§3) After 3 hours of transfection, medium was exchanged to Alpha Minimal Essential Medium (α-MEM) comprising 10% fetal bovine serum (FBS). Next day, the medium was exchanged to α-MEM comprising the acylated oxyntomodulin peptide analog of the present invention and 0.1% bovine serum albumin (BSA). After 6 hours, dual luciferase assay reagent (Promega) was added in the same amount as the medium in which the cells were submerged, and firefly luciferase and Renilla luciferase activities were successively measured. Firefly luciferase activity values were corrected against Renilla luciferase activity to yield transfection efficiency.

in vivo [1] = conditions: cynomolgus monkey, sc
Source text: Cynomolgus monkeys were used to evaluate the pharmacokinetics in monkeys of the acylated oxyntomodulin peptide analogs according to the present invention.

glucagon receptor = glucagon receptor (Homo sapiens, UniProt P47871); assay: Human glucagon receptor activation assay (CRE-luciferase); assay type: cell-based; design: host or cells: CHO-K1; conditions: CHO-K1 cells transiently transfected; for Emax: 6 h, relative to glucagon, read-out: GCG receptor Maximum activation (% vs GCG); for EC50: 6 hours, 0.1% BSA, read-out: GCG receptor EC50
glucagon receptor, sequence (P47871 26-477): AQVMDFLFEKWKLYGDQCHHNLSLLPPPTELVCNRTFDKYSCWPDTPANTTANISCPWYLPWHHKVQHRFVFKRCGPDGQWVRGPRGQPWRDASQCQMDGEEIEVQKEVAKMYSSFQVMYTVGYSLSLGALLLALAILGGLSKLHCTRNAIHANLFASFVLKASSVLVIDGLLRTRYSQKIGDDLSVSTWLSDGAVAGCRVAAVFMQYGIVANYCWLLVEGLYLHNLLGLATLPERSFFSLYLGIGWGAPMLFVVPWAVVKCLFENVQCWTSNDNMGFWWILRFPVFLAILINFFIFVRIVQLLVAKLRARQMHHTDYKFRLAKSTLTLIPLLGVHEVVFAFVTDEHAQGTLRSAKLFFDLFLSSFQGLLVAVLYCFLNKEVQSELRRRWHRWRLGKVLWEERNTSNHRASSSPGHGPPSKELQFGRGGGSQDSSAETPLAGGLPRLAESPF
Protocol: as §1, §2, §3

in vivo [2] = conditions: ICR, mouse, sc
Source text: ICR mice were used to evaluate the pharmacokinetics in mice of the acylated oxyntomodulin peptide analogs according to the present invention.

Human GLP-1 receptor = Human GLP-1 receptor (human, UniProt P43220); assay: cell-based or functional assay
Human glucagon receptor = Human glucagon receptor (human, UniProt P47871); assay: cell-based or functional assay

## CCCCCCCCCCCCCCCCCC(=O)N[C@@H](CCC(=O)NCCOCCOCC(=O)NCCOCCOCC(=O)NCCCC[C@H](NC(=O)[C@H](CC(=O)O)NC(=O)[C@H](CO)NC(=O)[C@@H](NC(=O)[C@H](Cc1ccccc1)NC(=O)[C@@H](NC(=O)CNC(=O)[C@H](CCC(N)=O)NC(=O)C(C)(C)NC(=O)[C@@H](N)Cc1c[nH]cn1)[C@@H](C)O)[C@@H](C)O)C(=O)N[C@@H](CO)C(=O)N[C@@H](CCCCN)C(=O)N[C@@H](Cc1ccc(O)cc1)C(=O)N[C@@H](CC(C)C)C(=O)N[C@@H](CC(=O)O)C(=O)NC(C)(C)C(=O)N[C@@H](CCCNC(=N)N)C(=O)N[C@@H](CCCNC(=N)N)C(=O)N[C@@H](C)C(=O)N[C@@H](CCC(N)=O)C(=O)N[C@@H](CC(=O)O)C(=O)N[C@@H](Cc1ccccc1)C(=O)N[C@H](C(=O)N[C@@H](CCC(N)=O)C(=O)N[C@@H](Cc1c[nH]c2ccccc12)C(=O)N[C@@H](CC(C)C)C(=O)N[C@@H](CCSC)C(=O)N[C@@H](CC(N)=O)C(=O)N[C@H](C(=O)N[C@@H](CCCCN)C(=O)N[C@@H](CCC(=O)O)C(=O)N[C@@H](Cc1ccc(O)cc1)C(=O)N[C@@H](CCC(=O)O)C(=O)N[C@@H](CCCCNC(=O)CCCCCCCCCCCCCCCCC(N)=O)C(=O)N[C@@H](CCC(=O)O)C(=O)N[C@@H](Cc1ccc(O)cc1)C(=O)N[C@@H](CCC(=O)O)C(=O)O)[C@@H](C)O)C(C)C)C(=O)O [Compound 7]
GLP-1 receptor
  Emax: 90.8%
  EC50: < 0.1 nM
In vivo [1]; Monkey PK (S.C. half-life)
  half-life: > 24 h
In vivo [1]; monkey PK half-life
  half-life: > 24 h
Glucagon receptor
  Emax: 100%
  EC50: < 0.1 nM
In vivo [2]; Mouse PK (S.C. half-life)
  half-life: > 6 h
In vivo [2]; half-life in mice
  half-life: > 6 h

## CCCCCCCCCCCCCCCCCC(=O)N[C@@H](CCC(=O)NCCOCCOCC(=O)NCCOCCOCC(=O)NCCCC[C@H](NC(=O)[C@H](CC(=O)O)NC(=O)[C@H](CO)NC(=O)[C@@H](NC(=O)[C@H](Cc1ccccc1)NC(=O)[C@@H](NC(=O)CNC(=O)[C@H](CCC(N)=O)NC(=O)C(C)(C)NC(=O)[C@@H](N)Cc1c[nH]cn1)[C@@H](C)O)[C@@H](C)O)C(=O)N[C@@H](CO)C(=O)N[C@@H](CCCCN)C(=O)N[C@@H](Cc1ccc(O)cc1)C(=O)N[C@@H](CC(C)C)C(=O)N[C@@H](CC(=O)O)C(=O)NC(C)(C)C(=O)N[C@@H](CCCNC(=N)N)C(=O)N[C@@H](CCCNC(=N)N)C(=O)N[C@@H](C)C(=O)N[C@@H](CCC(N)=O)C(=O)N[C@@H](CC(=O)O)C(=O)N[C@@H](Cc1ccccc1)C(=O)N[C@H](C(=O)N[C@@H](CCC(N)=O)C(=O)N[C@@H](Cc1c[nH]c2ccccc12)C(=O)N[C@@H](CC(C)C)C(=O)N[C@@H](CCSC)C(=O)N[C@@H](CC(N)=O)C(=O)N[C@H](C(=O)N[C@@H](CCCCN)C(=O)O)[C@@H](C)O)C(C)C)C(=O)O [Compound 8]
GLP-1 receptor
  Emax: 99.3%
  EC50: < 0.1 nM
Glucagon receptor
  Emax: 103%
  EC50: < 0.1 nM
In vivo [2]; Mouse PK (S.C. half-life)
  half-life: < 6 h

B1: Comparative Example Compound 10 (peptide)
peptide: H-H[Aib]QGTFTSDK([AEEA-AEEA-γGlu-Stearoyl])SKYLD[Aib]RRAQDFVQWLMNTKEYEK(13‑aminocarboxy‑1‑oxotridecyl)EYE-OH
Human GLP-1 receptor
  EC50: < 0.1 nM
  Maximum activation (% vs GLP-1): 105%
Human glucagon receptor
  EC50: < 0.1 nM
  Maximum activation (% vs GCG): 110%

B2: Comparative Example Compound 9 (peptide)
peptide: H-H[Aib]QGTFTSDK([AEEA-AEEA-γGlu-Stearoyl])SKYLD[Aib]RRAQDFVQWLMNTKEYEK(Palmitoyl)EYE-OH
SMILES: CCCCCCCCCCCCCCCCCC(=O)N[C@@H](CCC(=O)NCCOCCOCC(=O)NCCOCCOCC(=O)NCCCC[C@H](NC(=O)[C@H](CC(=O)O)NC(=O)[C@H](CO)NC(=O)[C@@H](NC(=O)[C@H](Cc1ccccc1)NC(=O)[C@@H](NC(=O)CNC(=O)[C@H](CCC(N)=O)NC(=O)C(C)(C)NC(=O)[C@@H](N)Cc1c[nH]cn1)[C@@H](C)O)[C@@H](C)O)C(=O)N[C@@H](CO)C(=O)N[C@@H](CCCCN)C(=O)N[C@@H](Cc1ccc(O)cc1)C(=O)N[C@@H](CC(C)C)C(=O)N[C@@H](CC(=O)O)C(=O)NC(C)(C)C(=O)N[C@@H](CCCNC(=N)N)C(=O)N[C@@H](CCCNC(=N)N)C(=O)N[C@@H](C)C(=O)N[C@@H](CCC(N)=O)C(=O)N[C@@H](CC(=O)O)C(=O)N[C@@H](Cc1ccccc1)C(=O)N[C@H](C(=O)N[C@@H](CCC(N)=O)C(=O)N[C@@H](Cc1c[nH]c2ccccc12)C(=O)N[C@@H](CC(C)C)C(=O)N[C@@H](CCSC)C(=O)N[C@@H](CC(N)=O)C(=O)N[C@H](C(=O)N[C@@H](CCCCN)C(=O)N[C@@H](CCC(=O)O)C(=O)N[C@@H](Cc1ccc(O)cc1)C(=O)N[C@@H](CCC(=O)O)C(=O)N[C@@H](CCCCNC(=O)CCCCCCCCCCCCCCC)C(=O)N[C@@H](CCC(=O)O)C(=O)N[C@@H](Cc1ccc(O)cc1)C(=O)N[C@@H](CCC(=O)O)C(=O)O)[C@@H](C)O)C(C)C)C(=O)O
Human GLP-1 receptor
  Maximum activation (% vs GLP-1): 70.4%
Human glucagon receptor
  Maximum activation (% vs GCG): 73.3%

B3: Comparative Example Compound 12 (peptide)
peptide: H-H[Aib]QGTFTSDK([AEEA-AEEA-γGlu-Stearoyl])SKYLD[Aib]RRAQDFVQWLMNTKEYEK([AEEA-AEEA-AEEA-Palmitoyl])EYE-OH
SMILES: CCCCCCCCCCCCCCCCCC(=O)N[C@@H](CCC(=O)NCCOCCOCC(=O)NCCOCCOCC(=O)NCCCC[C@H](NC(=O)[C@H](CC(=O)O)NC(=O)[C@H](CO)NC(=O)[C@@H](NC(=O)[C@H](Cc1ccccc1)NC(=O)[C@@H](NC(=O)CNC(=O)[C@H](CCC(N)=O)NC(=O)C(C)(C)NC(=O)[C@@H](N)Cc1c[nH]cn1)[C@@H](C)O)[C@@H](C)O)C(=O)N[C@@H](CO)C(=O)N[C@@H](CCCCN)C(=O)N[C@@H](Cc1ccc(O)cc1)C(=O)N[C@@H](CC(C)C)C(=O)N[C@@H](CC(=O)O)C(=O)NC(C)(C)C(=O)N[C@@H](CCCNC(=N)N)C(=O)N[C@@H](CCCNC(=N)N)C(=O)N[C@@H](C)C(=O)N[C@@H](CCC(N)=O)C(=O)N[C@@H](CC(=O)O)C(=O)N[C@@H](Cc1ccccc1)C(=O)N[C@H](C(=O)N[C@@H](CCC(N)=O)C(=O)N[C@@H](Cc1c[nH]c2ccccc12)C(=O)N[C@@H](CC(C)C)C(=O)N[C@@H](CCSC)C(=O)N[C@@H](CC(N)=O)C(=O)N[C@H](C(=O)N[C@@H](CCCCN)C(=O)N[C@@H](CCC(=O)O)C(=O)N[C@@H](Cc1ccc(O)cc1)C(=O)N[C@@H](CCC(=O)O)C(=O)N[C@@H](CCCCNC(=O)COCCOCCNC(=O)COCCOCCNC(=O)COCCOCCNC(=O)CCCCCCCCCCCCCCC)C(=O)N[C@@H](CCC(=O)O)C(=O)N[C@@H](Cc1ccc(O)cc1)C(=O)N[C@@H](CCC(=O)O)C(=O)O)[C@@H](C)O)C(C)C)C(=O)O
Human GLP-1 receptor
  EC50: < 0.1 nM
  Maximum activation (% vs GLP-1): 102%
Human glucagon receptor
  EC50: < 0.1 nM
  Maximum activation (% vs GCG): 89.6%

B4: Compound 2 (peptide)
peptide: H-H[Aib]QGTFTSDK([AEEA-AEEA-γGlu-Stearoyl])SKYLD[Aib]RRAQDFVQWLMNTKEYEK(15‑carboxy‑1‑oxopentadecyl)EYE-OH
Human GLP-1 receptor
  Maximum activation (% vs GLP-1): 104%
Human glucagon receptor
  Maximum activation (% vs GCG): 100%

B5: Comparative Example Compound 11 (peptide)
peptide: H-H[Aib]QGTFTSDK([AEEA-AEEA-γGlu-Stearoyl])SKYLD[Aib]RRAQDFVQWLMNTKEYEK(15‑aminocarboxy‑1‑oxopentadecyl)EYE-OH
Human GLP-1 receptor
  EC50: < 0.1 nM
  Maximum activation (% vs GLP-1): 92.8%
Human glucagon receptor
  EC50: < 0.1 nM
  Maximum activation (% vs GCG): 98.5%
